According to paper PMC3085011 (2011):

Molecular target: T1, CNA1 (Saccharomyces cerevisiae, UniProt P23287)
T1 chain: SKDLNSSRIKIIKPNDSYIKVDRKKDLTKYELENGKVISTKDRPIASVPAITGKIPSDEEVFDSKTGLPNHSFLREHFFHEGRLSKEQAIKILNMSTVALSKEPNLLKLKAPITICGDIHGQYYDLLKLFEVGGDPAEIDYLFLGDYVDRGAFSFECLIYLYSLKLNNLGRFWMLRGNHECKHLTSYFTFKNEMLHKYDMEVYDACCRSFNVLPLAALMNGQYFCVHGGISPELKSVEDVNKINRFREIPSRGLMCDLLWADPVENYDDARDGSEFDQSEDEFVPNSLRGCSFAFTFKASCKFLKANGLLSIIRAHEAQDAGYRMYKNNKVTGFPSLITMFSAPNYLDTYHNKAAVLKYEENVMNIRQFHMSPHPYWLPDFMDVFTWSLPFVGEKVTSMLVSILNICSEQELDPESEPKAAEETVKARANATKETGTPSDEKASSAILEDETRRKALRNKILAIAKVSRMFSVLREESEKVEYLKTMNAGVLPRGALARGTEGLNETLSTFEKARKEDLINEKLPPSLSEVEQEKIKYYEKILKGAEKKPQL
Test: SPROX

B1: CPR1 (protein)
chain: not shown
modifications: cyclosporin A
  Kd: 120 nM
